Changes are numbered by the printed parent chain.
B1: Mutation 1-23 (antibody, V domains shown)
VH: EVQLQQPGPELVKPGASVKMSCKASGYTFTSYVIHWVRQKPGQGLEWIGYMNPYNDGLKYNEKFIGKAILTSDKSSSTAYMQLSSLTSEDSAVYYCTKEGLFYVFDYWGQGTSVTVSS
VL: QIVLTQSPAIMSASPGEKVTMTCSATSSLSYMHWYQQKSGTSPKRWIYDSSKLASGVPVRFSGSGSGTSYSLTISSMEAEDAATYFCQQWRSDLPTFGAGTKLELKR
B2: Mutation 1-41 (antibody, V domains shown)
VH: B1 VH with L58I, K98R, F105M
VL: B1 VL with L29I, Q89W
B3: Mutation 1-46 (antibody, V domains shown)
VH: B1 VH with Y32S, K98R, F105M
VL: B1 VL with L29V, S50T
B4: Mutation 1-29 (antibody, V domains shown)
VH: B1 VH with L58I, K98R
VL: B1 VL with L29I, Q89W
B5: Mutation 1-39 (antibody, V domains shown)
VH: B1 VH with Y32T, L58I, K98R
VL: B1 VL
B6: Mutation 1-24 (antibody, V domains shown)
VH: B1 VH with Y32T, L58I, K98R, F105M
VL: B1 VL with L29V, S50T, Q89Y
B7: Mutation 1-42 (antibody, V domains shown)
VH: B1 VH with Y32T, L58I, K98R
VL: B1 VL with S50T
B8: Mutation 1-51 (antibody, V domains shown)
VH: B1 VH with Y32T, K98R, F105M
VL: B1 VL with L29I, Q89W
B9: Mutation 1-31 (antibody, V domains shown)
VH: B1 VH with Y32S, L58I, K98R
VL: B1 VL with L29V, Q89W
B10: WT 1-5 (antibody, V domains shown)
VH: B1 VH with F29V, P53A, E62D
VL: B1 VL with A25G, L29V, G56P, Q89W, D93V
B11: Mutation 1-28 (antibody, V domains shown)
VH: B1 VH with Y32S, L58I, F105M
VL: B1 VL with L29V, S50T, Q89Y
B12: WT 1-14 (antibody, V domains shown)
VH: B1 VH with F29V, Y32S, P53A, E62D, K98R
VL: B1 VL with A25G, G56P, Q89W, D93V
B13: Mutation 1-27 (antibody, V domains shown)
VH: B1 VH with Y32T, K98R
VL: B1 VL with L29V
B14: Mutation 1-53 (antibody, V domains shown)
VH: B1 VH with L58I, K98R, F105M
VL: B1 VL with L29V, S50T, Q89Y
B15: Mutation 1-33 (antibody, V domains shown)
VH: B1 VH with Y32T, K98R
VL: B1 VL with L29I, Q89W
B16: Mutation 1-47 (antibody, V domains shown)
VH: B1 VH with L58I, K98R
VL: B1 VL with L29I, Q89Y
B17: Mutation 1-43 (antibody, V domains shown)
VH: B1 VH with Y32S, L58I, F105M
VL: B1 VL with S50T, Q89Y
B18: Mutation 1-38 (antibody, V domains shown)
VH: B1 VH with F105M
VL: B1 VL with L29I, Q89W
B19: Mutation 1-34 (antibody, V domains shown)
VH: B1 VH with Y32S, L58I, K98R
VL: B1 VL with S50T, Q89Y
B20: Mutation 1-35 (antibody, V domains shown)
VH: B1 VH with F105M
VL: B1 VL with L29V, Q89W
B21: Mutation 1-45 (antibody, V domains shown)
VH: B1 VH with Y32T, L58I
VL: B1 VL with Q89W
B22: Mutation 1-4 (antibody, V domains shown)
VH: B1 VH with Y32S, F105M
VL: B1 VL with S50T, Q89W
B23: Mutation 1-3 (antibody, V domains shown)
VH: B1 VH with Y32T, L58I, K98R
VL: B1 VL with L29I, Q89Y
B24: Mutation 1-32 (antibody, V domains shown)
VH: B1 VH with L58I, F105M
VL: B1 VL with L29V, S50T
B25: Mutation 1-50 (antibody, V domains shown)
VH: B1 VH
VL: B1 VL with L29I, S50T, Q89Y
B26: Mutation 1-30 (antibody, V domains shown)
VH: B1 VH with Y32T, K98R, F105M
VL: B1 VL with S50T, Q89Y
B27: Mutation 1-37 (antibody, V domains shown)
VH: B1 VH with Y32S, L58I, K98R
VL: B1 VL with L29V, S50T, Q89Y
B28: Mutation 1-25 (antibody, V domains shown)
VH: B1 VH with Y32S, K98R
VL: B1 VL with L29I, Q89W
B29: Mutation 1-40 (antibody, V domains shown)
VH: B1 VH with Y32S
VL: B1 VL with L29V, S50T, Q89Y
B30: Mutation 1-1 (antibody, V domains shown)
VH: B1 VH with Y32S, L58I
VL: B1 VL with Q89W
B31: Mutation 1-2 (antibody, V domains shown)
VH: B1 VH with K98R, F105M
VL: B1 VL with L29V, S50T
B32: Mutation 1-36 (antibody, V domains shown)
VH: B1 VH with Y32T, K98R
VL: B1 VL
B33: Mutation 1-49 (antibody, V domains shown)
VH: B1 VH with Y32S, L58I, K98R
VL: B1 VL with L29V, S50T
B34: WT 1-19 (antibody, V domains shown)
VH: B1 VH with F29V, P53A, L58I, E62D, F105M
VL: B1 VL with A25G, L29V, G56P, D93V
B35: Mutation 1-44 (antibody, V domains shown)
VH: B1 VH with K98R
VL: B1 VL with L29V, Q89Y
B36: Mutation 1-52 (antibody, V domains shown)
VH: B1 VH with Y32S
VL: B1 VL
B37: Mutation 1-48 (antibody, V domains shown)
VH: B1 VH with Y32T, F105M
VL: B1 VL with Q89W
B38: WT 1-11 (antibody, V domains shown)
VH: B1 VH with F29V, Y32T, P53A, L58I, E62D, K98R, F105M
VL: B1 VL with A25G, L29I, S50T, G56P, Q89Y, D93V
B39: Mutation 1-26 (antibody, V domains shown)
VH: B1 VH with L58I, K98R, F105M
VL: B1 VL with S50T, Q89W

target: DN-IV quality control recombinant protein (produced by the company) (dengue virus); test: BLI, antibody on AMC sensor

Row | Binder | Kd [nM] | koff [s⁻¹] | kon [M⁻¹ s⁻¹]
1 | B1 | 3.97 | 0.00019 | 47800
2 | B2 | 0.455 | 0.00016 | 352000
3 | B3 | 0.569 | 0.000222 | 390000
4 | B4 | 0.493 | 0.000178 | 361000
5 | B5 | 4.55 | 0.000186 | 40900
6 | B6 | 2.85 | 0.000133 | 46600
7 | B7 | 0.532 | 0.000209 | 393000
8 | B8 | 0.5 | 0.000201 | 402000
9 | B9 | 0.579 | 0.00023 | 397000
10 | B10 | 57.8 | 0.000264 | 4570
11 | B11 | 0.591 | 0.000259 | 438000
12 | B12 | 45.6 | 0.000188 | 4120
13 | B13 | 3.55 | 0.000149 | 42000
14 | B14 | 2.71 | 0.000115 | 42500
15 | B15 | 0.56 | 0.000276 | 493000
16 | B16 | 0.57 | 0.000211 | 370000
17 | B17 | 0.624 | 0.000256 | 410000
18 | B18 | 0.643 | 0.000292 | 454000
19 | B19 | 2.89 | 0.000112 | 38700
20 | B20 | 0.661 | 0.000252 | 381000

Row | Binder | Kd [nM] | koff [s⁻¹] | kon [M⁻¹ s⁻¹]
21 | B21 | 4.22 | 0.000174 | 41200
22 | B22 | 0.478 | 0.000234 | 490000
23 | B23 | 2.9 | 0.000119 | 41100
24 | B24 | 0.631 | 0.000221 | 350000
25 | B25 | 3.79 | 0.000167 | 44100
26 | B26 | 3.12 | 0.000132 | 42300
27 | B27 | 3.63 | 0.000145 | 39900
28 | B28 | 2.92 | 0.00014 | 47900
29 | B29 | 0.671 | 0.000261 | 389000
30 | B30 | 0.445 | 0.000181 | 407000
31 | B31 | 2.79 | 0.000116 | 41600
32 | B32 | 0.657 | 0.000282 | 429000
33 | B33 | 0.765 | 0.000299 | 391000
34 | B34 | 35.4 | 0.000162 | 4570
35 | B35 | 2.63 | 0.00011 | 41800
36 | B36 | 3.02 | 0.000124 | 41000
37 | B37 | 0.665 | 0.000248 | 373000
38 | B38 | 57.1 | 0.000244 | 4270
39 | B39 | 3.61 | 0.000152 | 42100

Reference: patent publication US20210324054A1
